Measured values published in publication PMC9926122.

Biological target: recombinant EB1 (HS-AFM and microtubule experiments) (human) (UniProt Q15691)
Sequence (Q15691 whole entry): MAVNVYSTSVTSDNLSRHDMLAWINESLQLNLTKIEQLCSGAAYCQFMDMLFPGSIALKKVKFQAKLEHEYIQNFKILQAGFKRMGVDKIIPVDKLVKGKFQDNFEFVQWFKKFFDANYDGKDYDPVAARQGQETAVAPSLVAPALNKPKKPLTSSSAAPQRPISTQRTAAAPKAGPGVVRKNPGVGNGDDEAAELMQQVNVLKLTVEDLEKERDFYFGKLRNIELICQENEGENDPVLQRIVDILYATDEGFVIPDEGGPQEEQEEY

6xHis-tagged WT Ska1, sequence (Q96BD8 whole entry): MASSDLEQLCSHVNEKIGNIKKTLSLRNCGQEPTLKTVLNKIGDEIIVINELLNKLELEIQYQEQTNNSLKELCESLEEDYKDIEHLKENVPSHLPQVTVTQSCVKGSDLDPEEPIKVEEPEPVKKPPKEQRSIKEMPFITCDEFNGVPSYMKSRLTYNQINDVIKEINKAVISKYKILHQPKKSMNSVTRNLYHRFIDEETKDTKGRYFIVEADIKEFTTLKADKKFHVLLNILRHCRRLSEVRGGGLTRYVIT

localization of Ska1 on prepolymerized MTs in vitro in the presence of EB1 (1 uM), fluorescence microscopy: WT Ska1 against Ska1 ΔSHLP (0.5 uM each): 1.6 fold
Substance: 6xHis-tagged WT Ska1 (from UniProt Q96BD8 1-255) (natural protein)
